From PMC7666536 (Cell, 2020)

Target: SARS-CoV-2 nsp12 (RNA-dependent RNA polymerase) (SARS-CoV-2, UniProt P0DTD1)
Test: cryo-EM structure

B1: SARS-CoV-2 nsp9 (full-length, residues N1–Q113) (natural protein)
chain: NNELSPVALRQMSCAAGTTQTACTDDNALAYYNTTKGGRFVLALLSDLQDLKWARFPKSDGTGTIYTELEPPCRFVTDTPKGPKVKYLYFIKGLNNLNRGMVLGSLAATVRLQ
Does B1 bind?
Result: binds
